US20160115247A1, “SINGLE DOMAIN ANTIBODIES DIRECTED AGAINST INTRACELLULAR ANTIGENS” (SINGH BIOTECHNOLOGY, LLC, priority 2014, published 2016)
Where “and” joins values, the source holds several entries; their conditions need not be identical. Identical values can stand only once.

Legend:
TNF-alpha = target: T1, TNF-alpha (Homo sapiens, UniProt P01375); test: Inhibition of TNF-alpha cytotoxicity in U937 cells; assay type: cell-based; details: constant dose of TNF-alpha at EC50; for inhibition of killing of U937 by TNF-alpha (in words): FIG. 14
T1 construct: host or cells: added to U937 cells
T1 sequence (P01375 77-233 limits assumed): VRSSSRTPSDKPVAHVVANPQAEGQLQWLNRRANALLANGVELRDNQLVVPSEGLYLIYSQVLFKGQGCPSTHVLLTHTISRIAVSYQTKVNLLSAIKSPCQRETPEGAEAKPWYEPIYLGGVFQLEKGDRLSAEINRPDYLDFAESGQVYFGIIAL

MDA-MB-231 cells = test: MTT proliferation assay, MDA-MB-231; assay type: cell-based, human;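 also: human cancer cells kept at 37 °C in humidified 5% CO2, with treated groups compared against a vehicle control group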
PANC-1 cells = test: MTT proliferation assay, PANC-1; assay type: cell-based, human; details: for Mean Absorbance (570 nM) ± S.E.: single experiments 1-3

B1: anti-TNF-alpha VHH69: anti-TNF-alpha sdAb, SEQ ID NO. 46 (protein)
VHH: EVQLVESGGGSVLAGGSLRLSCVASGFTSRYNYMAWFRQAPGKEREGVATIGTASGSADYYGSVKDRFTISQDNAKNTVYLQMNSLKPEDTAMYYCAARTYGTISLTPSDYRYWGQGTLVTVSS
modifications: camelid
IC50 (inhibition of TNF-alpha cytotoxicity against U937) (TNF-alpha): greater than 208.055 ug/ml
inhibition of killing of U937 by TNF-alpha (in words) (TNF-alpha): inhibit killing of U937 by TNF-alpha

B2: B.VHH14: anti-STAT3 single-domain antibody VHH14, SEQ ID NO. 4 (protein)
VHH: QVQLVESGGGSVQAGGSLRLSCVASTYTGCMGWFRQAPGKEREGVAALSSRGFAGHYTDSVKGRFSISRDYVKNAVYLQMNTVKPEDAAMYYCAAREGWECGETWLDRTAGGHTYWGQGTLVTVSS
modifications: camelid
% Inhibition of cell proliferation (MDA-MB-231 cells; 3 days of treatment, 10.0 μg/ml): 23.1%
% Inhibition of cell proliferation (MDA-MB-231 cells; 3 days of treatment, 100.0 μg/ml): 57.0%
% Inhibition of cell proliferation (MDA-MB-231 cells; 5 days of treatment, 0.5 μg/ml): 0%
% Inhibition of cell proliferation (MDA-MB-231 cells; 5 days of treatment, 1.0 μg/ml): 0%
% Inhibition of cell proliferation (MDA-MB-231 cells; 5 days of treatment, 10.0 μg/ml): 5.5%
% Inhibition of cell proliferation (MDA-MB-231 cells; 5 days of treatment, 100.0 μg/ml): 18.9%
Mean Absorbance (570 nM) ± S.E. (MDA-MB-231 cells; Day 3 post treatment, 0.5 μg/ml): 0.666 ± 0.022
Mean Absorbance (570 nM) ± S.E. (MDA-MB-231 cells; Day 3 post treatment, 1.0 μg/ml): 0.644 ± 0.045
Mean Absorbance (570 nM) ± S.E. (MDA-MB-231 cells; Day 3 post treatment, 10.0 μg/ml): 0.456 ± 0.048
Mean Absorbance (570 nM) ± S.E. (MDA-MB-231 cells; Day 3 post treatment, 100 μg/ml): 0.255 ± 0.005
Mean Absorbance (570 nM) ± S.E. (MDA-MB-231 cells; Day 5 post treatment, 0.5 μg/ml): 0.733 ± 0.038
Mean Absorbance (570 nM) ± S.E. (MDA-MB-231 cells; Day 5 post treatment, 1.0 μg/ml): 0.794 ± 0.023
Mean Absorbance (570 nM) ± S.E. (MDA-MB-231 cells; Day 5 post treatment, 10.0 μg/ml): 0.640 ± 0.011
Mean Absorbance (570 nM) ± S.E. (MDA-MB-231 cells; Day 5 post treatment, 100 μg/ml): 0.549 ± 0.023
Mean Absorbance (570 nM) ± S.E., Overall Mean (MDA-MB-231 cells; Table 6, Day 3, 10.0 μg/ml): 0.504 ± 0.021
Mean Absorbance (570 nM) ± S.E. (MDA-MB-231 cells; Table 6, Day 3, 10.0 μg/ml, single experiments 1-4): 0.456 ± 0.048 and 0.499 ± 0.018 and 0.502 ± 0.048 and 0.559 ± 0.041
Mean Absorbance (570 nM) ± S.E., Overall Mean (MDA-MB-231 cells; Table 6, Day 3, 100 μg/ml): 0.302 ± 0.043
Mean Absorbance (570 nM) ± S.E. (MDA-MB-231 cells; Table 6, Day 3, 100 μg/ml, single experiments 1-4): 0.255 ± 0.005 and 0.357 ± 0.019 and 0.308 ± 0.021 and 0.287 ± 0.021
Mean Absorbance (570 nM) ± S.E., Overall Mean (MDA-MB-231 cells; Table 7, Day 5, 10.0 μg/ml): 0.688 ± 0.131
Mean Absorbance (570 nM) ± S.E., Overall Mean (MDA-MB-231 cells; Table 7, Day 5, 100 μg/ml): 0.475 ± 0.0690
Overall Average % Inhibition (MDA-MB-231 cells; post 3 days, 10.0 μg/ml): 26.2%
Mean Growth Inhibition (MDA-MB-231 cells; post 3 days, 10.0 μg/ml, single experiments 1-4): 23.1% and 20.0% and 38.5% and 23.3%
Overall Average % Inhibition (MDA-MB-231 cells; post 3 days, 100 μg/ml): 55.7%
Mean Growth Inhibition (MDA-MB-231 cells; post 3 days, 100 μg/ml, single experiments 1-4): 57.0% and 42.8% and 62.3% and 60.6%
Overall Average % Inhibition (MDA-MB-231 cells; post 5 days, 10.0 μg/ml): 14.9%
Overall Average % Inhibition (MDA-MB-231 cells; post 5 days, 100 μg/ml): 38.6%

B3: H.VHH14: anti-STAT3 sdAb VHH14, SEQ ID NO. 4 (protein)
VHH: B2 VHH
modifications: camelid
Mean Absorbance (570 nM) ± S.E., Overall Mean (PANC-1 cells; Day 3, 10.0 μg/ml): 1.089 ± 0.085
Mean Absorbance (570 nM) ± S.E. (PANC-1 cells; Day 3, 10.0 μg/ml): 0.920 ± 0.133 and 1.183 ± 0.114 and 1.163 ± 0.044
Mean Absorbance (570 nM) ± S.E., Overall Mean (PANC-1 cells; Day 3, 100 μg/ml): 0.906 ± 0.054
Mean Absorbance (570 nM) ± S.E. (PANC-1 cells; Day 3, 100 μg/ml): 0.808 ± 0.239 and 0.993 ± 0.088 and 0.916 ± 0.088
Mean Absorbance (570 nM) ± S.E., Overall Mean (PANC-1 cells; Day 5, 10.0 μg/ml): 1.368 ± 0.247
Mean Absorbance (570 nM) ± S.E. (PANC-1 cells; Day 5, 10.0 μg/ml): 1.859 ± 0.033 and 1.165 ± 0.015 and 1.081 ± 0.103
Mean Absorbance (570 nM) ± S.E., Overall Mean (PANC-1 cells; Day 5, 100 μg/ml): 0.754 ± 0.333

B4: anti-TNF-alpha VHH62: anti-TNF-alpha sdAb, SEQ ID NO. 47 (protein)
VHH: QVQLVESGGGPVQAGETLRLSCTASGFTFAEADMGWYRQAPGHECELVSTITTEGITSEASSYYADSVRGRFTISRDNAKNMVYLQMNSLKPEDTAVYYCAPDPYAYSTYSDYCSWAQGTQGTLVTVSS
modifications: camelid
IC50 (inhibition of TNF-alpha cytotoxicity against U937) (TNF-alpha): approximately 713.6 ug/ml
inhibition of killing of U937 by TNF-alpha (in words) (TNF-alpha): inhibit killing of U937 by TNF-alpha
